Results taken from patent US20190345534.

Test system: GzmB peptide substrate AIEFDSGc on PEG-coated iron oxide nanoparticles (GzmB-sensing synthetic biomarker)

Chain of MASP2 (Biomatik) (O00187 16-686): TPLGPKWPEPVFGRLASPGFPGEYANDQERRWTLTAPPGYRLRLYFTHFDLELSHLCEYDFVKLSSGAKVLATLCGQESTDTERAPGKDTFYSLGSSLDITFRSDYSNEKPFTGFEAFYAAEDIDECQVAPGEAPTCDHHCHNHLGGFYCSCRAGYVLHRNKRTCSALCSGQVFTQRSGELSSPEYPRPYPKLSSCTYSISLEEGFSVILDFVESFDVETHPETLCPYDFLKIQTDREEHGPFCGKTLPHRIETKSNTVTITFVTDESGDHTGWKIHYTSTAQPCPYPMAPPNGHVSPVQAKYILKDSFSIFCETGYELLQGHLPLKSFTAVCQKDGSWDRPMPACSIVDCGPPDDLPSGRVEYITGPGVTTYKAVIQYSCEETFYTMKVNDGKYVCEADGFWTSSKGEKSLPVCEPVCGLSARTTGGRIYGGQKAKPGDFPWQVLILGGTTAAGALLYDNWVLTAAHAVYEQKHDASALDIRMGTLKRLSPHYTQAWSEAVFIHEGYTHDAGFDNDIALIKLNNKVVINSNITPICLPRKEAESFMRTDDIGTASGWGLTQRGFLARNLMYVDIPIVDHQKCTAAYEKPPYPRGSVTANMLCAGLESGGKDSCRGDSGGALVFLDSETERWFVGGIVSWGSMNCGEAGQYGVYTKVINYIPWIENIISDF
Chain of Factor I (Sigma) (P05156 19-583): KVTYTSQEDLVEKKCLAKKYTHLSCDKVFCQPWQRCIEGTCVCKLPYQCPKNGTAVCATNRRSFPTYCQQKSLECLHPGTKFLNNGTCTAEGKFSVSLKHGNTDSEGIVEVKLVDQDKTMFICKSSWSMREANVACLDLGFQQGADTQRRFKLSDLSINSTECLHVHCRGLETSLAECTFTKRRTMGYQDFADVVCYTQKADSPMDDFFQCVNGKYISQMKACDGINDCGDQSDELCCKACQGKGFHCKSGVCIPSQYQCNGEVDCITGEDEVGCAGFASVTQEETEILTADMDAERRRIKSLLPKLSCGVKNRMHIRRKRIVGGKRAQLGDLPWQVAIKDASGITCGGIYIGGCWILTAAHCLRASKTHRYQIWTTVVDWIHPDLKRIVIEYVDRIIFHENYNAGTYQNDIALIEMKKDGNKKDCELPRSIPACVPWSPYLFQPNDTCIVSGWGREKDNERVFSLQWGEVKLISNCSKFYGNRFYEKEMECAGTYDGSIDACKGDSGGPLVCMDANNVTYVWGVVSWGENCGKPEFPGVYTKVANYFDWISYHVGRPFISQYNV
Chain of Factor D (Sigma) (P00746 26-253): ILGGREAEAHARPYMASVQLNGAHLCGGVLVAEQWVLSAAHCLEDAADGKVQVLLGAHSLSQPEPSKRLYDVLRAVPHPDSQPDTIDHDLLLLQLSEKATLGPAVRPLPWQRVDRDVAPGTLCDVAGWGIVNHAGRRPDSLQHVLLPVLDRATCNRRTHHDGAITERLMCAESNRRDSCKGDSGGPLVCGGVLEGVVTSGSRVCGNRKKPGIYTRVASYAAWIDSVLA

Substance: MASP2 (Biomatik)
- fluorescent intensity (in vitro protease cleavage assay): Increases in fluorescent intensity were observed only in samples containing recombinant GzmB

Substance: human thrombin (HaemTech)
- fluorescent intensity (in vitro protease cleavage assay): Increases in fluorescent intensity were observed only in samples containing recombinant GzmB

Substance: Factor D (Sigma)
- fluorescent intensity (in vitro protease cleavage assay): Increases in fluorescent intensity were observed only in samples containing recombinant GzmB

Substance: mouse thrombin (HaemTech)
- fluorescent intensity (in vitro protease cleavage assay): Increases in fluorescent intensity were observed only in samples containing recombinant GzmB

Substance: Factor I (Sigma)
- fluorescent intensity (in vitro protease cleavage assay): Increases in fluorescent intensity were observed only in samples containing recombinant GzmB
